The target in this data set is T1, IscR-WT (Pseudomonas aeruginosa PAO1) (UniProt Q9HXI7).
T1 sequence: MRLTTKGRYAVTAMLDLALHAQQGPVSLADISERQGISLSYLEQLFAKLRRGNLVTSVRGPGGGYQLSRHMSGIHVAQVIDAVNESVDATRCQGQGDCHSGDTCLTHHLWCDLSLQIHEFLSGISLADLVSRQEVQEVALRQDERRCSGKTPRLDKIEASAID
Description: DNase I footprinting. To be noted: EMSA: 20 mM Tris-HCl pH 8.0, 50 mM KCl, 4 mM MgCl2, 0.5 mM EDTA, 0.02 mg/ml BSA, 5 mM DTT, 10% glycerol, 200 ng poly(dI-dC), 3 fmol probe in 25 ul, 25 C ….

With “GCCTTTCTGCGGGAGCTGGCCATCGACGTTGACCGGGTTGCCCTTGAGAGTCACTTGAGCCATTGCGTTGATCCTTCTAGTCAGTGAGAAGCCGCCGGCCCTGTGGCCGGCGGCGGAAGCATTCGGGGCCGGCGACGATGCTAGCACGCTTTACCCGAGCGAAAACCTCGGGTTTGAGCATCGCCGTCCCCCGAGGCTCAACTCCTGGCCTTGGCGAAATACTCCCGGGTC (double strand) [tpx promoter]”, the binding entry is “binds”.

Values taken from PMC6599224.
